The values that follow come from patent US7514534 (DYAX, dated 2009).

Assay [1] has as its target T1, MMP-26 catalytic domain, tagged with hexa-histidine (human, UniProt Q9NRE1 90-261).
T1 construct: the forward primer adds Met-Ala before it; also called MMP-26 target protein; Matrilysin-2; not shown: Also any N-terminal residues added by the forward primer (Met-Ala according to our card; the primers were not visible to me)
T1 sequence: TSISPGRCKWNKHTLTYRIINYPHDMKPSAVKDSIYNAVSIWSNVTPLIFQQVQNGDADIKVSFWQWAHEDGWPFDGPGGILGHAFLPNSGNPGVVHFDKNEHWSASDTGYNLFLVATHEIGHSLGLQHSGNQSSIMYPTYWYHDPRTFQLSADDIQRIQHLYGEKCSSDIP
The assay is described as follows: bead-based ELISA, MMP-26 on nickel beads, IgG4 culture supernatant. On the procedure:
Reformatted and expressed full-length MMP-26 binding IgG4 antibodies were tested for specificity in a bead-based ELISA. Approximately 1.25 μg of MMP-26 protein was bound to nickel-coated magnetic beads (Novagen) which had been pre-blocked with phosphate buffered saline containing 5% (w/v) nonfat dry milk and 0.05% (v/v) Tween-20. The beads were washed in phosphate buffered saline containing 0.05% (v/v) Tween-20 (PBS-T) and 100 uls of unpurified cell culture supernatant containing transiently produced MMP-26-binding antibodies was added and incubated on a rotator for sixty minutes. The beads were washed with PBS-T and MMP-26-binding antibodies were detected with an HRP-conjugated anti-human secondary antibody. Data is expressed in fold over background where background consists of beads, blocking agent, and culture supernatant containing target antibody (Table 2; in this table, Results shown as fold over background (F>B) where background consists of beads, blocking agent, and culture supernatant).
Background: In an ELISA, binding on a coated surface is turned into a signal by an enzyme label.

The target in a further assay is T2, MMP-3 (UniProt P08254 100-477, limits assumed).
T2 construct: also called stromelysin-1
The assay is described as follows: cross-reactivity ELISA on coated MMP. On the procedure: (§1) Twenty-one of the reformatted MMP-26 antibodies were tested for MMP cross reactivity by ELISA analysis. MMP-3, MMP-7, MMP-9, and MMP-12 were coated onto Immulon 2 HB 96-well plates at a concentration of 1 μg/ml for 1 hour at 37° C. The plates were blocked with PBS-T containing 5% (w/v) nonfat dry milk for thirty minutes and subsequently washed with PBS-T. Each antibody was tested for reactivity to all of the above mentioned MMPs at a concentration of 2 μg/ml with an incubation time of 1 hour. Bound antibody was detected with an HRP-conjugated anti-human secondary antibody (Table 3, NT=not tested.).

The next assay concerns the target T3, MMP-9 (UniProt P14780 107-707, limits assumed).
T3 construct: also called gelatinase
Kind of assay: cross-reactivity ELISA on coated MMP. The protocol: as §1

T2 sequence (P08254 100-477 limits assumed): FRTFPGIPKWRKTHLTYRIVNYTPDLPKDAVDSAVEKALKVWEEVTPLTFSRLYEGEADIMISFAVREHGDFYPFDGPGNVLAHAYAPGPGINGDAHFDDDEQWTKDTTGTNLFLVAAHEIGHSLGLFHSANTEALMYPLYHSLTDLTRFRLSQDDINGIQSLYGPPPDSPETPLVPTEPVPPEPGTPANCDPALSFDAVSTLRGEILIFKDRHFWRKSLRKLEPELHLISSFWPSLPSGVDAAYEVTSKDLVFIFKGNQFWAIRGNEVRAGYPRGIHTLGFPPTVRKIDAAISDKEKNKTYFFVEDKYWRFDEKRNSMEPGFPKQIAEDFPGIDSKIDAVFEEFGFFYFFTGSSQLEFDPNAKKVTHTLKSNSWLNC
T3 sequence (P14780 107-707 limits assumed): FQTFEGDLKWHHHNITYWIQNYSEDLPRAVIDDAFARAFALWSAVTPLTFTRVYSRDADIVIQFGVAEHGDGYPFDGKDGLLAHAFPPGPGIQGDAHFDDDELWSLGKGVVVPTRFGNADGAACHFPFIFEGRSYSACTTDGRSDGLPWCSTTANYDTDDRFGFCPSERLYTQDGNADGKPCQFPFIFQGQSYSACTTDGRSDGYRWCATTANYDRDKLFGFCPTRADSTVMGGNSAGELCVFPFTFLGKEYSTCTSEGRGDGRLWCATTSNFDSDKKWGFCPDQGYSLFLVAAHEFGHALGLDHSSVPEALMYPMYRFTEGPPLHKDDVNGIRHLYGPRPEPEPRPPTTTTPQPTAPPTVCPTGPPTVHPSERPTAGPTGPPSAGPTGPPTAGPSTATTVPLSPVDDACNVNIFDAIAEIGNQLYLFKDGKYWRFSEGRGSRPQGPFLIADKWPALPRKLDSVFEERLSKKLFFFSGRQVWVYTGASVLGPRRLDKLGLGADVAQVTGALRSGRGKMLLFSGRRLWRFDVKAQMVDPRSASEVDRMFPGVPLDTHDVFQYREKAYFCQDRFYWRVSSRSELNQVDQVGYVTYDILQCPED

B1: C04 (antibody, human IgG4, V domains shown)
VH: EVQLLESGGGLVQPGGSLRLSCAASGFTFSMYFMVWVRQAPGKGLEWVSWIGSSGGETPYADSVKGRFTISRDNSKNTLYLQMNSLRAEDTAVYYCARGYSSGWYVMGDYWGQGTLVTVSS
VL: QSALTQPPSASGTPGQRVTISCSGTSSNIGSHYVFWYQQLPGTAPKLLIHRNDERPSGVPDRFSGSKSGTSASLAISGLQSEDEADYYCATWDDNLNGPVFGGGTKLT
notes: whole human IgG4
Turning to B1, the “F > B (fold over background)” value in assay [1] was determined as 2.9 fold over background. In addition, the binding result with MMP-3 and with MMP-9 was “no binding (tested: 2 µg/ml)” each time.

B2: C08 (antibody, human IgG4, V domains shown)
VH: EVQLLESGGGLVQPGGSLRLSCAASGFTFSYYEMMWVRQAPGKGLEWVSSISPSGGPTMYADSVKGRFTISRDNSKNTLYLQMNSLRAEDTGVYYCARKMGRVGYCSSTSCYRDDYYGMDVWGQGTTVTVSS
VL: DIQMTQSPPSLSALVGDRVTITCRASQSISRYVNWYQQKPGKAPKVLIYAASIVENGVPSRFSGSGSGTDFSLTISSLQPEDFATYYCQQTYSTPLTFGGGTKLAIKR
notes: whole human IgG4
In the case of B2, the “F > B (fold over background)” value in assay [1] amounted to 3.4 fold over background. In addition, the binding result in the assay with MMP-3 and with MMP-9 was “no binding (tested: 2 µg/ml)” each time.

B3: C05 (antibody, human IgG4, V domains shown)
VH: EVQLLESGGGLVQPGGSLRLSCAASGFTFSSYQMDWVRQAPGKGLEWVSRIVPSGGDTTYADSVKGRFTISRDNSKNTLYLQMNSLRAEDTAVYYCARHVYYDSSDYFPNPFDYWGQGTLVTVSS
VL: QSELTQPPSVSGTPGQRVTISCSGSSSNIGSEYVYWFQQLPGTAPRLLIYRNDQRPSGVPDRFSGSKSGTSASLAISGLRSEDETDYYCTTWDDSLSGPVFGGGTKLTVLG
notes: whole human IgG4
For the molecule B3, the “F > B (fold over background)” value in assay [1] amounted to 3.6 fold over background. In addition, the binding result with MMP-3 and in the assay with MMP-9 was “no binding (tested: 2 µg/ml)” throughout.

B4: C06 (antibody, human IgG4, V domains shown)
VH: EVQLLESGGGLVQPGGSLRLSCAASGFTFSFYFMFWVRQAPGKGLEWVSYIGPSGGPTNYADSVKGRFTISRDNSKNTLYLQMNSLRAEDTAVYYCARHYPREYQLPGSFDPWGQGTLVTVSS
VL: DIQMTQSPSSLSASVGDRVTITCRASQGISNYLAWYQQKPGKVPKLLIYPASTLQSGVPSRFSGSGSGTDFTLTISSLQPEDFATYYCQQADSFPPTFGGGTTVEIRR
notes: whole human IgG4
In the case of B4, in assay [1], the “F > B (fold over background)” value amounted to 2.2 fold over background. For the same molecule, the binding result with MMP-3 and with MMP-9 was “no binding (tested: 2 µg/ml)” each time.

B5: A03 (antibody, human IgG4, V domains shown)
VH: EVQLLESGGGLVQPGGSLRLSCAASGFTFSIYSMDWVRQAPGKGLEWVSSIYSSGGATRYADSVKGRFTISRDNSKNTLYLQMNSLRAEDTAVYYCARCSWLQLVPMHPWGQGTLVTVSS
VL: QSALTQPPSASGTPGQRVTISCSGGSSNIGSNFVYWYRQLPGTAPKLLIYRNYQRPSGVPDRFSGSKSGTSASLAISGLLSEDEADYYCAAWDDNVGGVFGSGTKVTVLG
notes: whole human IgG4
On to B5, for which the “F > B (fold over background)” value in assay [1] worked out at 3.54 fold over background. Further, the binding result with MMP-3 and in the assay with MMP-9 was “no binding (tested: 2 µg/ml)” in each case.

B6: C07 (antibody, human IgG4, V domains shown)
VH: EVQLLESGGGLVQPGGSLRLSCAASGFTFSYYVMMWVRQAPGKGLEWVSVIRPSGGITTYADSVKGRFTISRDNSKNTLYLQTNSLRAEDTAVYYCAKIDYGGNSFYFDYWGQGTLVTVSS
VL: DIQMTQSPSSLSASVGDRVTITCRASQSISNYLNWYQQRPGKAPKLLIYAASSLERGVPSRFSGSGSGTDFTLTISSLQSEDFATYYCQQSYSPPPLTFGGGTKLEIKR
notes: whole human IgG4
Regarding B6, the “F > B (fold over background)” value in assay [1] came to 3.12 fold over background. Further, the binding result with MMP-3 and with MMP-9 was “no binding (tested: 2 µg/ml)” in each case.

B7: C10 (antibody, human IgG4, V domains shown)
VH: EVQLLESGGGLVQPGGSLRLSCAASGFTFSVYVMMWVRQAPGKGLEWVSGIVPSGGKTHYADSVKGRFTISRDNSKNTLYLQMNSLRAEDTAVYYCARPDYGGNSRPLEYWGQGTLVTVSS
VL: QSELTQPASVSGSPGQSITISCTGTSSDVGSYNLVSWYQQHPGKAPKLMIYEGSKRPSGVSNRFSGSKSGNTASLTISGLQAEDEADYYCCSYAGSSTYVFGTGTKVTVLG
notes: whole human IgG4
In the case of B7, the “F > B (fold over background)” value in assay [1] stood at 3.41 fold over background. For the same molecule, the binding result with MMP-3 and in the assay with MMP-9 was “no binding (tested: 2 µg/ml)” each time.

B8: C09 (antibody, human IgG4, V domains shown)
VH: EVQLLESGGGLVQPGGSLRLSCAASGFTFSQYFMNWVRQAPGKGLEWVSYISGGRTPYADSVKGRFTISRDNSKNTLYLQMNSLRAEDTAVYYCAILLGPSSSNHPFLGPWGQGTLVTVSS
VL: DIQMTQSPGTLSLSPGERATLSCRASQSVSSTYLAWYQQKPGQAPRLLISGASSRATGIPDRFSGSGSGTDFTLTISRLEPEDFAVYYCQQYGSSPYTFGQGTKLEIKR
notes: whole human IgG4
For B8, the “F > B (fold over background)” value in assay [1] was 3.4 fold over background. Moreover, the binding result with MMP-3 and with MMP-9 was “no binding (tested: 2 µg/ml)” each time.

B9: B11 (antibody, human IgG4, V domains shown)
VH: EVQLLESGGGLVQPGGSLRLSCAASGFTFSPYFMFWVRQAPGKGLEWVSSIGSSGGDTSYADSVKGRFTISRDNSZNTLYLQMNSLRAEDTAVYYCARGLYRWGQGTLVTVSS
VL: QSELTQPPSVSLAPGQTARITCGGNNIGTKSVHWYQQKPGQAPVLVVYDDSDRPSGIPERFSGSNSGNTATLTISRVEAGDEADYYCQVWDSGSDHQVFGGGTKLTVLG
notes: whole human IgG4; the VHC entry has one unread residue (printed z, K75z)
For B9, the “F > B (fold over background)” value in assay [1] came out at 3.13 fold over background. In addition, the binding result in the assay with MMP-3 and with MMP-9 was “no binding (tested: 2 µg/ml)” each time.

B10: C01 (antibody, human IgG4, V domains shown)
VH: EVQLLESGGGLVQPGGSLRLSCAASGFTFSNYGMSWVRQAPGKGLEWVSVIGPSGGITMYADSVKGRFTISRDNSKNTLYLQMNSLRAEDTAVYYCATGSSSGWYPNFDYWGQGTLVTVSS
VL: DIQMTQSPSTLSASVGDRVTITCRASQSIGNWLAWYQQKPGEAPHLLIYQASSLEGGVPSRFSGSGSGTKFTLNISSLQPDDFATYYCQQYNSYSYTFGQGTKLDIKR
notes: whole human IgG4
Consider B10, for which the “F > B (fold over background)” value in assay [1] was found to be 2.8 fold over background. The binding result in the assay with MMP-3 and with MMP-9 was “no binding (tested: 2 µg/ml)” throughout.

B11: C03 (antibody, human IgG4, V domains shown)
VH: EVQLLESGGGLVQPGGSLRLSCAASGFTFSLYMMKWVRQAPGKGLEWVSVISSSGGYTQYADSVKGRFTISRDNSKNTLYLQMNNLRAEDTAVYYCARGWDVWGKGTTVTVSS
VL: QSALTQPPSASGTPGQRVTISCSGSNSNIGGNIVIWLQQLPGTAPKLMIYDVSDRPSGVPDRFSGSKSGTSASLAISGLQSEDEADYYCAAWDDSLNGWVFGGGTKLTVLS
notes: whole human IgG4
In the case of B11, the “F > B (fold over background)” value in assay [1] worked out at 4.1 fold over background. For the same molecule, the binding result with MMP-3 and with MMP-9 was “no binding (tested: 2 µg/ml)” each time.

B12: A01 (antibody, human IgG4, V domains shown)
VH: EVQLLESGGGLVQPGGSLRLSCAASGFTFSAYNMFWVRQAPGKGLEWVSGIGSSGGIAPYADSVKGRFTISRDNSKNTLYLQMNSLRAEDTAVYYCARAAYEVENWFDPWGQGTLVTVSS
VL: DIQMTQSPGTLSLSPGERATLSCRASQIVRSTYLAWYQQKPGQAPRLLIYGTSSRATGVPDRFSGSGSGTDFTLTISGLEPEDFALYYCQRYGDSPPITFGQGTRLEITR
notes: whole human IgG4
Turning to B12, the “F > B (fold over background)” value in assay [1] turned out to be 3.3 fold over background. Besides, the binding result with MMP-3 and in the assay with MMP-9 was “no binding (tested: 2 µg/ml)” throughout.

B13: B12 (antibody, human IgG4, V domains shown)
VH: EVQLLESGGGLVQPGGSLRLSCAASGFTFSLYVMYWVRQAPGKGLEWVSYISSSGGITHYADSVKGRFTISRDNSKNTLYLQMNSLRAEDTAVYYCARGSIVVVPAAIRSNNWFDPWGQGTLVTVSS
VL: QSALTQPPSVSVAPGQTARISCGGDNIDTKNVQWYQQRPGQAPVLVVYDNSDRPSAIPERFSGSNSGTTATLTISRVEAGDEADYYCQVFDGRSDHPVFGGGTKLTV
notes: whole human IgG4
For B13, the “F > B (fold over background)” value in assay [1] is 2.83 fold over background. The binding result with MMP-3 and in the assay with MMP-9 was “no binding (tested: 2 µg/ml)” each time.

B14: B08 (antibody, human IgG4, V domains shown)
VH: EVQLLESGGGLVQPGGSLRLSCAASGFTFSRYMMNWVRQAPGKGLEWVSVIWSSGGKTLYADSVKGRFTISRDNSKNTLYLQMKSLRAEDTAVYYCARGGYNNYYYSMDVWGQGTTVTVSS
VL: QSELTQPHSVSGSPGKTVTISCTRSSGSIAGNYVQWYQQRPGSSPTTVIYEDNKRPSGVPDRFSGSIDSSSNSASLIISGLKTEDEADYYCHSYDTSNQVFGGGTKLTVLG
notes: whole human IgG4
Take B14: the “F > B (fold over background)” value in assay [1] stood at 3 fold over background. Besides, the binding result in the assay with MMP-3 and with MMP-9 was “no binding (tested: 2 µg/ml)” throughout.
